Assay results as given in US20260234660A1 (Regeneron, published 2026).
Values belong to the binder of their own block, whether it stands above or below them.

Assays:
[1] = molecular target: T1, human CACNG1, cell surface-expressed (human, UniProt Q06432 1-222); experiment: cell-based or functional assay
[2] = molecular target: T1, human CACNG1, cell surface-expressed; experiment: cell-based or functional assay; remark: listed apart in the source
[3] = molecular target: T1, human CACNG1, cell surface-expressed; experiment: cell-based or functional assay; remark: listed apart in the source
[4] = molecular target: T2, mouse CACNG1 on myofibers of wildtype mice (mouse, UniProt O70578 1-223); experiment: immunofluorescence on live single myofibers ex vivo (wildtype mice), fluorescent secondary antibody, confocal imaging
T2 construct: whole, on cells; Target inferred from the cells: the wildtype myofibers carry mouse CACNG1, which the CACNG1^Hu/Hu mice have replaced by human CACNG1; also called wildtype (WT) myofibers
T2 sequence (looked up): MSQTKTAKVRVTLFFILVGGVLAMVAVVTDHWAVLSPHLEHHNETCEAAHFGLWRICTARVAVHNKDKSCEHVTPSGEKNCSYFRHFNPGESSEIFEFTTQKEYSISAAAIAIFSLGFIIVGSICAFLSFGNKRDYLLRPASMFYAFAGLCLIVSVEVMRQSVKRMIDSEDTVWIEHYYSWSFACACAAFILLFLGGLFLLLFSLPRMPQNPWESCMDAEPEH
Procedure: Single myofibers were isolated from either wildtype mice, mice that were homozygous for the deletion of CACNG1 (referred to as CACNG1 knockout mice), or mice that were homozygous for the expression of human CACNG1 in place of mouse CACNG1 (referred to as CACNG1^{Hu/Hu}). The gastrocnemius muscle was removed, collagenase digested, and single myofibers were isolated, washed, and incubated overnight at 37° C. at 5% C02, in DMEM+10% horse serum. […] Myofibers were then washed twice in DMEM+10% horse serum, and subsequently incubated with 10 ug/mL of fluorescent-conjugated secondary antibodies for 30 minutes, washed twice in DMEM+10% horse serum, and then fixed with 4% paraformaldehyde (PFA) for 15 minutes at room temperature. Single fibers were then washed twice with PBS, stained with Hoechst for 5 minutes, washed once more with PBS, then transferred to microscope slides, coverslipped, and imaged using a Zeiss LSM 710 confocal microscope.

[5] = molecular target: T3, nanodisc embedded human CACNG1 expressed with a C-terminal PADRE-Flag-His tag (human, UniProt Q06432 1-222); experiment: SPR (Biacore T200), 25 C, anti-His-captured human CACNG1 nanodisc, antibody as analyte
T3 construct: Membrane protein (gamma-1 subunit of the skeletal muscle L-type calcium channel) in a nanodisc; also called human CACNG1 nanodisc; CACNG1 nanodisc; not shown: C-terminal PADRE-Flag-His tag
T3 sequence (Q06432 whole entry): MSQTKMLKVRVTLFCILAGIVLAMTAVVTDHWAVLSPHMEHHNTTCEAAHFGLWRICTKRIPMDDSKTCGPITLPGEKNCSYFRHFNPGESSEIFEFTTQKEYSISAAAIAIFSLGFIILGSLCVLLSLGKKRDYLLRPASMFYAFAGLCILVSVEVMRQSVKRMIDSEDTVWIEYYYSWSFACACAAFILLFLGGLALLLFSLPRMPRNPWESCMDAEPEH
Procedure: Equilibrium dissociation constants (KD values) for nanodisc embedded human CACNG1 expressed with a C-terminal PADRE-Flag-His tag (human CACNG1 nanodisc) binding to purified anti-hCACNG1 antibodies were determined using a real-time surface plasmon resonance biosensor technology with a Biacore T200 instrument. The CM5 Biacore sensor surface was derivatized by amine coupling with a monoclonal mouse anti-His antibody (Cytiva; Marlborough, MA). All Biacore binding studies were performed in a buffer composed of 0.01M HEPES, 0.15M NaCl, 1 mM CaCl₂), 0.5 mM MgCl₂, pH 7.4 (HBS-N++ running buffer). Different concentrations of anti-hCACNG1 antibodies (ranging from 300 nM to 12 nM in 5-fold serial dilutions) prepared in HBS-N++ running buffer were injected over the captured human CACNG1 nanodisc at a flow rate of 30 μL/minute. Antibody association was monitored for 2 minutes while dissociation was monitored in HBS-N++ running buffer for 5 minutes. At the end of each cycle, the human CACNG1 nanodisc capture surface was regenerated using three 10 second injections of 10 mM Gly pH1.5. All binding kinetics experiments were performed at 25° C.

T1 sequence (Q06432 whole entry): as above

- EC50; androgen receptor luciferase reporter (RLU), hCACNG1.AR.Luc LNCaP cells, 24 hours [1]: 19 nM
- EC50; androgen receptor luciferase reporter (RLU), hCACNG1.AR.Luc LNCaP cells, 72 hours [2]: 7.79 nM
- EC50; androgen receptor luciferase reporter (RLU), hCACNG1.AR.Luc LNCaP cells, 48 hours [3]: 6.49 nM
B1: REGN5972-M3004 (antibody, V domains shown)
VH: QVQLVESGGGVVQPGRSLRLSCTASGFTFRSYGMHWVRQAPGKGLEWVSVIWIDGNNIYYADSVKGRFTISRDNSKNTLYLQMDSLRAEDTAVYYCARRLAITSAAPFDYWGQGTLVTVSS
VL: not shown
modifications: N180Q in the constant region (heading of the 2nd table, row 736); linker-payload M3004 (VC-PAB linker, DHT)

- binding result [4]: no binding (tested: 100 nM)
- mAb Bound at 300 nM (RU) [5]: 14 RU
B2: H4H31265P2/REGN5972 (antibody, V domains shown)
VH: B1 VH
VL: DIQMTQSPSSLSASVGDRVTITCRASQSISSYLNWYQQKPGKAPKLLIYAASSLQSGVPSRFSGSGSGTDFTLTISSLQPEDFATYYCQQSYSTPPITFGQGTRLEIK
notes: also called antibody designation 7

- binding result [4]: no binding (tested: 100 nM)
B3: H1M31941N (antibody, mouse IgG1, kappa, V domains shown)
VH: QVQLVQSGAEVKKPGASVKVSCKASGYAFTTYGITWVRQAPGQGLEWMGWISAYNGNTNYAEKVQGRFTMTTDTSTNTAYMELRSLRSDDTAVYFCARKGHYGSGTYYNPFGFDFWGQGTMVTVSS
VL: EIMLMQSPGTLSLSPGERATLSCRASQSVSSSYLAWYQQKPGQAPRLLIYGASSRATDIPDRFSGSGSGTDFTLTISRLEPEDFAVYFCQQYYGSPWTFGQGTKVEIKR
notes: also called antibody designation 8
